We go through one substance from patent US20150087814A1.

One assay addresses FcγRIIb (UniProt P31994). The assay is described as follows: SPR (Biacore T100), antibody captured on protein A chip, receptor injected as analyte. For orientation: In SPR one partner is held on a chip, and binding of the other changes the refractive index at the surface.
The target in another assay is FcγRIIIa-F158 (UniProt P08637). Description: SPR (Biacore T100), antibody captured on protein A chip, receptor injected as analyte, 1:1 steady-state fit.
FcγRIIIa-F158, sequence (P08637 17-208 limits assumed): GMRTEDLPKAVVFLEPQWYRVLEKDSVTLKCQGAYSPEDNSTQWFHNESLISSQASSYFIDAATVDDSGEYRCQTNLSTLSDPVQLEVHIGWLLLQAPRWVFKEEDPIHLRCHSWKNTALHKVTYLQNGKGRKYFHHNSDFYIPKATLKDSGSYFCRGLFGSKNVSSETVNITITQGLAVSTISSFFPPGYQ

FcγRIIb, sequence (P31994 46-217 limits assumed): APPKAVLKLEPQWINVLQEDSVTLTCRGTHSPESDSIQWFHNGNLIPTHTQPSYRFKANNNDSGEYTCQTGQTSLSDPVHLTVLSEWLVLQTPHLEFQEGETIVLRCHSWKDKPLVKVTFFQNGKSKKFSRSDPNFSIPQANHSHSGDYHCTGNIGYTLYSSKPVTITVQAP

As to “nonfucosylated G2 glycoform of rituximab (10) (antibody)”, the dissociation constant (Kd) (as a rule, the equilibrium constant for the complex coming apart) with FcγRIIb came out at 2300 nM; with FcγRIIIa-F158 it was 123 nM.
